Literature values, collected in patent US20250205311A1, “PHARMACEUTICAL COMPOSITIONS OF SEMAGLUTIDE AND THE METHODS OF USE THEREOF” (PENTIDE THERAPEUTICS LIMITED, priority 2022, published 2025).

Details: oral tablet

## N6,26-{18-[N-(17-carboxyheptadecanoyl)-L-glutamyl]-1 0-oxo-3,6, 12, 15-tetraoxa-9, 18-diazaoctadecanoyl}-[8-(2-amino-2-propanoic acid), 34-L-arginine] human glucagon-like peptide 1 (7-37) [semaglutide]
  oral bioavailability: 0.4-1%
